Test [1] deals with T1, rat αKlotho (endogenous) (rat, UniProt Q9Z2Y9 35-983).
T1 sequence (looked up): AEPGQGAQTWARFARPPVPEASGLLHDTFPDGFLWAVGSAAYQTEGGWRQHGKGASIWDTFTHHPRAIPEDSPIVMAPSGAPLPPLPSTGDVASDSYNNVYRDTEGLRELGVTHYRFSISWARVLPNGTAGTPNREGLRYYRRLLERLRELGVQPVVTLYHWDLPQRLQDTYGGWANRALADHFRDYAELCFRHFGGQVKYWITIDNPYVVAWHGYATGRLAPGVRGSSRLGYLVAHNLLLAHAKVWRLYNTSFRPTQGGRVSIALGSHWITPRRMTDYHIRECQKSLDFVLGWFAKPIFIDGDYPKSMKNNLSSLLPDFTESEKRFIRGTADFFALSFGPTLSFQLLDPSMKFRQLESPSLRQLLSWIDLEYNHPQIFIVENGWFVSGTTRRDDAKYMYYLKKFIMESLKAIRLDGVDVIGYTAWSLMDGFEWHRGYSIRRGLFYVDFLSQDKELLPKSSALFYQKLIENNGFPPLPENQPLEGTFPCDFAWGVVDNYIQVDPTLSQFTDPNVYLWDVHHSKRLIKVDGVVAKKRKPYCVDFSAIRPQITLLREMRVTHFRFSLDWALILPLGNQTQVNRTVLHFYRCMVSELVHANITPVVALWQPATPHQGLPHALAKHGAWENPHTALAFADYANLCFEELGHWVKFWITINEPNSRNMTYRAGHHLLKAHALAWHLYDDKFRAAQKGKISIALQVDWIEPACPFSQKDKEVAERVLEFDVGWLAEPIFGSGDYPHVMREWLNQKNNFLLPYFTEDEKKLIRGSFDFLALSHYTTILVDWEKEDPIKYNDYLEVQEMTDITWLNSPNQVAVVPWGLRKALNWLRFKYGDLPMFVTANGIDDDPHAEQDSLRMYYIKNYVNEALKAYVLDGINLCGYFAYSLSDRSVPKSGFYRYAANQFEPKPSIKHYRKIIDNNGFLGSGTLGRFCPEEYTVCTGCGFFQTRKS
The experiment in a line: immunoprecipitation-immunoblot, serum and urine; native soluble αKlotho in rat serum; immunoprecipitation-immunoblot. The protocol:
The ELISA was performed as instructed by the manufacturer (Immuno-Biological Laboratory, Japan). For the IP-IB assay, typically 50 μl of serum or urine were diluted with KRH buffer [25 mM Hepes-NaOH (pH 7.4), 120 mM NaCl, 5 mM KCl, 1.2 mM MgSO4, 1.3 mM CaCl2, 1.3 mM KH2PO4] to a final volume of 0.5 ml incubated with 2 μg of sb106-Fab overnight at 4° C. in low binding, siliconized tubes. Sepharose beads (50 μL) conjugated with anti-FLAG antibody (50% v/v) prewashed 3× with KRH buffer were added, incubated (4° C.×2 h), and washed (KRH-500 μl per tube ×3; 22° C.). The immune complex was eluted with 2×SDS sample loading buffer (50 μl; 100° C.×3 min; 4° C.×3 min; spun), and fractionated by SDS-PAGE, transferred to nitrocellulose membranes and blotted with anti-KL1 antibody (KM2076, 1:4000 or 3.1 mg/mL, 1:10000 dilution) and diluent (Dako#S3022, Carpinteria, Calif., USA) overnight (4° C., rocker). The membrane was washed (×3, Tris-buffered saline with 0.1% Tween; TBS-T), exposed to anti-rat IgG2A (LSBio cat#LS-059051, 1:20000 in 5% milk/2% goat serum/TBS-T×1 h) and washed (×3 TBS-T). For chemiluminescence, the membrane was covered with SuperSignal West Femto Maximum Sensitivity substrate (Thermo Scientific, Rockford, Ill., USA) and exposed for 30-90 s. The 130-kD bands were scanned, and density was compared with internal control samples of know amount of Klotho using Adobe Photoshop CS4.
(In general: In western blotting, separated proteins are transferred to a membrane and probed.)

The target in test [2] is T2, soluble human αKlotho (recombinant) (human, UniProt Q9UEF7 34-981).
T2 construct: also called Hu aKL; recombinant human αKlotho
T2 sequence (looked up): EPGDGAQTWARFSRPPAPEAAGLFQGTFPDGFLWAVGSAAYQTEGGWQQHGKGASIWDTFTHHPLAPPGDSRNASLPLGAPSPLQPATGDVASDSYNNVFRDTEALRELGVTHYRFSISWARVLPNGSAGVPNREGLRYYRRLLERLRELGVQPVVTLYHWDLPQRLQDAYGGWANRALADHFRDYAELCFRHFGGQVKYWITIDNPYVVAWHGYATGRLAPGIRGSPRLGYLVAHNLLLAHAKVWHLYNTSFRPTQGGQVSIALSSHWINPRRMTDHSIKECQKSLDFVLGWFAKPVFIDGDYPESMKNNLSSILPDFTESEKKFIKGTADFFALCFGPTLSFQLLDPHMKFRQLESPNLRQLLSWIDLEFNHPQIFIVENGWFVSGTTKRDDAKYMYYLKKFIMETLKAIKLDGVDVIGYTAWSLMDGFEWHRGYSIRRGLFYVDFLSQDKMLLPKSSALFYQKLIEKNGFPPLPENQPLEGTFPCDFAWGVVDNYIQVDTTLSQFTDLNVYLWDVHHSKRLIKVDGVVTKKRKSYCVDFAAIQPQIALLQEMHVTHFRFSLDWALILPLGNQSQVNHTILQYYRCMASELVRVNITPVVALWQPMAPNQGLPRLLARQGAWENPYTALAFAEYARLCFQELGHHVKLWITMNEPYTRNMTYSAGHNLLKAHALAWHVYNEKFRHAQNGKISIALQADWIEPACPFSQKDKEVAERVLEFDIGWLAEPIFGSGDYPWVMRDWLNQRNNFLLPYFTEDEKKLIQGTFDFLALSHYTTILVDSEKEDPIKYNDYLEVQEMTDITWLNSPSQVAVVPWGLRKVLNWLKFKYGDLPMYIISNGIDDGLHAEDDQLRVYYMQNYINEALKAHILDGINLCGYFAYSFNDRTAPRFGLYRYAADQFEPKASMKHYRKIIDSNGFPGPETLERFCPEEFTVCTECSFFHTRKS
As to the kind of experiment: SPR (ProteOn XPR36), Fab captured by anti-IgG(H+L), human αKlotho injected in serial dilutions, Langmuir fit [continued) B.]. The protocol:
Estimated affinities against human and mouse antigen for select αKlotho Fabs were obtained by surface plasmon resonance on a ProteOn XPR36 (FIG. 17). Fabs were captured using an anti-IgG(H+L) antibody and serial dilutions of αKlotho were injected. Binding curves were fitted to the Langmuir model. (A) Determined Kon, Koff and KD values. (B) and (C) Binding curves for human and mouse antigen respectively.

As a reminder, the Kd is the concentration at which binding is half-saturated. As a reminder, the koff is the rate constant with which the complex falls apart. Usually kon stands for the second-order rate constant of association.

B1: sb106 Fab (Fab, V domains shown)
VH: EVQLVESGGGLVQPGGSLRLSCAASGFNISYYSIHWVRQAPGKGLEWVAYISPSYGYTSYADSVKGRFTISADTSKNTAYLQMNSLRAEDTAVYYCARYYVYASHGWAGYGMDYWGQGTLVTVSS
VL: DIQMTQSPSSLSASVGDRVTITCRASQSVSSAVAWYQQKPGKAPKLLIYSASSLYSGVPSRFSGSRSGTDFTLTISSLQPEDFATYYCQQAGYSPITFGQGTKVEIKR
notes: also called Fsb106; clone 48
Take B1: the binding result in test [1] was “binds”. In test [2], the dissociation constant (Kd) amounted to 1.02 nM, the koff is 0.000315 s⁻¹ and the kon turned out to be 308000 M⁻¹ s⁻¹.

These data come from patent publication US20190041402A1 (GOVERNING COUNCIL OF THE UNIVERSITY OF TORONTO, published 2019).
